# Laboratory results as given in PMC5852640.
# What was measured:
# [1] = target: BG505 SOSIP.664 HIV-1 envelope glycoprotein trimer (HIV-1 (BG505, clade A)); test: negative-stain electron microscopy; NS-EM imaging of the purified Drug Substance of the three production runs; details in SOM Methods
# [2] = target: BG505 SOSIP.664 HIV-1 envelope glycoprotein trimer (HIV-1 (BG505, clade A)); test: SEC; purified Drug Substance of the 50 L Confirmation, 200 L Demonstration and 200 L cGMP runs; SEC / SE-HPLC; details in SOM Methods
substance,measurement,setting,value
BG505 SOSIP.664 HIV-1 envelope glycoprotein trimer (complex),stoichiometry N,[1],3
same,stoichiometry N,[2],3
